Here are results for eight molecules from patent US20080102065A1 (published 2008).

Test [1] concerns the target T1, biotinylated mouse EpoR-Fc protein (muEpoR-Fc) (mouse, UniProt P14753 25-249, limits assumed, biotinylated).
T1 construct: also called mouse EpoR (muEpoR); not shown: Fc part
T1 sequence (looked up): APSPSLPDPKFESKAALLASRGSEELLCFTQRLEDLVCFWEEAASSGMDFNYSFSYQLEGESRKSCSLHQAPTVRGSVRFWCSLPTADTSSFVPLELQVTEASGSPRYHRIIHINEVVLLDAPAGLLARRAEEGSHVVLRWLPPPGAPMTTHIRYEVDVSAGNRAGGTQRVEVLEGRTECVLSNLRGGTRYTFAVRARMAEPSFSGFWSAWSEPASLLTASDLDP
In words: ELISA, antibody coated at 1 µg/ml, biotinylated muEpoR-Fc at 5 µg/ml, streptavidin-HRP.

The target in test [2] is T2, huEpoR expressed on the cell surface (UT-7 cells) (human, UniProt P19235 25-508).
T2 sequence (looked up): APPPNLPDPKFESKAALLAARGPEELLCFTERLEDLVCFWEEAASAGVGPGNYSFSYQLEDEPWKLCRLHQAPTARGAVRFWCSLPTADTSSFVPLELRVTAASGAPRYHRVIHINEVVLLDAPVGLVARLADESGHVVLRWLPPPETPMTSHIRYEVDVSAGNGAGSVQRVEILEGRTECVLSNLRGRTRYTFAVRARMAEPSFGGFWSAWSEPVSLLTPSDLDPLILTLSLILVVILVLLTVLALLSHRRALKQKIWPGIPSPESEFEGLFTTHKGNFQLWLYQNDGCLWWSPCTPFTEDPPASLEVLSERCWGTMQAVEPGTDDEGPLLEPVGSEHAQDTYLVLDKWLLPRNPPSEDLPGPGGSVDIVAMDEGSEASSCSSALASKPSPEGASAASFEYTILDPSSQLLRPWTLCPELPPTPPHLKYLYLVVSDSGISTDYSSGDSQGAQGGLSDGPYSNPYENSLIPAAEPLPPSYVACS
In words: cell-based or functional assay.

The target of test [3] is T3, mouse EpoR (muEpoR) (mouse, UniProt P14753 25-249, limits assumed).
T3 sequence (looked up): T1 sequence (looked up)
In words: ELISA on coated muEpoR, scFv-Fc at 5 µg/ml (Example 17). Background: An ELISA detects its analyte on a solid surface through an enzyme-linked reagent.

For test [4], the target named is T4, huEpoR protein (soluble human erythropoietin receptor) (human, UniProt P19235 25-250, limits assumed).
T4 construct: also called soluble huEpoR; biotinylated huEpoR
T4 sequence (looked up): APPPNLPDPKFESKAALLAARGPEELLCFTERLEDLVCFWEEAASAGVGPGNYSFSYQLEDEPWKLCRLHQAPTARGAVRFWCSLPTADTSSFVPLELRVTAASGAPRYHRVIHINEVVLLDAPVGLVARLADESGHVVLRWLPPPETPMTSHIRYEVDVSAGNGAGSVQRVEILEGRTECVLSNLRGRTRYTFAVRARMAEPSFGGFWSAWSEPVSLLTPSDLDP
In words: SPR, Biacore T100; scFv-Fc captured on anti-human IgG Fc CM5 chip, EpoR as analyte; 1:1 fit.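 Also: measured at 25 °C in HBS-EP buffer with 0.1 mg/ml BSA, flowed at 50 µl/min, 1 min association then dissociation (10 min human, 5 min cyno EpoR).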

Test [5] concerns the target T5, cynomolgus monkey EpoR (cynoEpoR) (cynomolgus monkey, UniProt A0A2K5WKK4 25-250).
T5 construct: Soluble protein (coated in ELISA, analyte in SPR)
T5 sequence: T4 sequence (looked up) with A19V, G47A, G49S, G51D, Q58H, V112I, S135G, V138I, T148A
In words: SPR, Biacore T100; scFv-Fc captured on anti-human IgG Fc CM5 chip, EpoR as analyte; steady-state fit; steady-state fit; cyno EpoR.

Test [6] addresses T5, cynomolgus monkey EpoR (cynoEpoR). In words: SPR, Biacore T100; scFv-Fc captured on anti-human IgG Fc CM5 chip, EpoR as analyte; 1:1 fit.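 Also: measured at 25 °C in HBS-EP buffer with 0.1 mg/ml BSA, flowed at 50 µl/min, 1 min association then dissociation (10 min human, 5 min cyno EpoR).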 Background: SPR reads the build-up and loss of mass on a sensor chip optically.

Numbering of substitutions follows the chain as printed.

B1: clone 10 IgG2 protein (antibody, V domains shown)
VH: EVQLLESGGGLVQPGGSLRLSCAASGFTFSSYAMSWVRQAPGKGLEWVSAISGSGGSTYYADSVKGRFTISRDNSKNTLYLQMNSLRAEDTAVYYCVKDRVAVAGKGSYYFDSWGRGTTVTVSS
VL: QSVLTQPPSVSEAPGQRVTIACSGSSSNIGNNAVSWYQQLPGKAPTLLIYYDNLLPSGVSDRFSGSKSGTSASLAISGLQSEDEADYYCAAWDDSLNDWVFGGGTKVTVL
notes: Human IgG2 (VH in an IgG2 heavy chain expression vector; light chain constant type matches the variable light chain isotype)
Regarding B1, in test [1], the binding result was “binds”.

B2: Mxb 318 (clone 318 scFv-Fc protein) (Fc fusion)
VH: QVQLVESGGGLVQPGGSLRLSCAVSGFTFSKYWMTWVRQAPGKGLEWVANIKPDGSEKYYVESVKGRFTISRDNAKNSVYLQMNSVRAEDTAVYYCARVSRGGSFSDWGQGTLVTVSS
VL: QSVLTQPPSASGSPGQSVTISCTGTSSDVGGYNYVSWYQQHPGRAPKLIIYEVSKRPSGVPDRFSGSKSGNTASLTVSGLQADDEADYYCNSYAGSIYVFGSGTKVTVL
notes: Tested as scFv-Fc (maxibody) with an Fc derived from human IgG1
The term Kd denotes the free concentration of one partner at which half of the binding sites on the other are occupied at equilibrium, for simple one-to-one binding. For orientation: koff means the first-order rate constant of dissociation. What is called kon is the rate constant with which the complex forms. On to B2, for which, in test [2], the “Average EC50 (nM), UT-7-luciferase (STAT5 reporter) assay” value (“Average EC50 (nM), UT-7-luciferase” below) is 0.0154 nM and the “Ratio (EC50 of Epo / EC50 of the scFv-Fc), UT-7-luciferase assay” value was 0.623. Besides, in test [3], the binding result is listed as “no binding (tested: 5 µg/ml)”. In test [4], the Kd is 847 nM, the koff came out at 0.558 s⁻¹ and the kon stood at 659000 M⁻¹ s⁻¹. In test [5], this molecule showed a dissociation constant Kd of 4890 nM.

B3: Mxb 330 (clone 330 scFv-Fc protein) (Fc fusion)
VH: B2 VH with Q1E
VL: QSALTQPPSASGSPGQSVTISCTGTSSDVGAYNYVSWYQQHPGKAPKLMIYEVARRPSGVPDRFSGSKSGNTASLTVSGLQAEDEADYYCSSYAGSNNFAVFGRGTKLTVL
notes: as for B2
Take B3: in test [2], the “Average EC50 (nM), UT-7-luciferase” value is 0.0075 nM and the “Ratio (EC50 of Epo / EC50 of the scFv-Fc), UT-7-luciferase assay” value came to 1.28. Moreover, the binding result in test [3] is reported as “no binding (tested: 5 µg/ml)”. For the same molecule, in test [4], binding was put at a Kd of 45.4 nM, the koff came to 0.0373 s⁻¹ and the association rate constant (kon) was found to be 822000 M⁻¹ s⁻¹. In test [6], this molecule had a dissociation constant (Kd) of 890 nM, an off-rate constant (koff) of 0.0965 s⁻¹ and a kon of 108000 M⁻¹ s⁻¹.

B4: clone 5 IgG2 protein (antibody, V domains shown)
VH: B2 VH with Q1E, V24A, K31S, T35S, E62D, V86L, F105Y
VL: QSALTQPASVSGSPGQSITISCTGTSSDVGGYIYVSWYQQHPGKAPKLMIYDVSRRPSGISDRFSGSKSGNTASLTISGLQAEDEADYYCNSYTTLSTWLFGGGTKVTVL
notes: Human IgG2 (VH in an IgG2 heavy chain expression vector; light chain constant type matches the variable light chain isotype); also called IgG2 5; IgG25
For the molecule B4, the binding result in test [1] is recorded as “binds”.

B5: clone 7 IgG2 protein (antibody, V domains shown)
VH: B2 VH with Q1E, E6Q, V24A, K31S, T35S, E62D, V86L, F105Y, Q110K
VL: QSALTQPASVSGSPGQSIIISCTGTRSDIGGYNYVSWYQHHPGRAPKLIIFDVNNRPSGVSHRFSGSKSGNTASLTISGLQAEDEADYYCNSFTDSRTWLFGGGTKLTVL
notes: as for B1
On to B5, for which the binding result in test [1] is reported as “binds”.

B6: clone 2 IgG2 protein (antibody, V domains shown)
VH: B2 VH with Q1E, E6Q, V24A, K31S, T35S, E62D, V86L, F105Y
VL: QSVLTQPPSASGSPGQSVTISCTGTSSDVGGYNYVSWYQQHPGKAPKLMIYEVSKRPSGVPDRFSGSKSGNTASLTVSGLQPEDEADYYCSSYAGRNWVFGGGTQLTVL
notes: Human IgG2 (VH in an IgG2 heavy chain expression vector; light chain constant type matches the variable light chain isotype); also called IgG2 2; IgG22
As for B6, in test [1], the binding result is “binds”.

B7: clone 30 IgG2 protein (antibody, V domains shown)
VH: QVQLQESGPGLVKPSQTLSLTCAISGDSVSSNSAAWNWIRQSPSRGLEWLGRTYYRSKWYNDYAVSVKSRMTIKADTSKNQFSLQLNSVTPEDTAVYYCARDEGPLDYWGQGTLVTVSA
VL: QAVLTQPSSVSGAPGQRVTISCTGSSSNLGTGYDVHWYQQLPGTAPKLLIYGNSNRPSGVPDRFSGSKSDTSGLLAITGLQAEDEATYYCQSYDFSLSAMVFGGGTKVTVL
notes: as for B1
Turning to B7, in test [1], the binding result is listed as “binds”.

B8: Mxb 34 (clone 34 scFv-Fc protein) (Fc fusion)
VH: QVQLQQSGAEVKKPGASVKVSCKASGYTFSGYYMHWVRQAPGQGLEWMGWINPNSGSTNYAQKFLGRVTMTRDTSISTAYMELSSLRSDDTAVYYCARGHSGDYFDYWGQGTLVTVSA
VL: EIVLTQSPSSLSASVGDRVTITCRASQSVSSWLAWYQQRPGQAPKLLIYAARLRGGGPSRFSGSGSGTEFTLTISSLQPEDFATYFCQQSYSTPISFGGGTKLEIK
notes: as for B2
Turning to B8, in test [2], the “Average EC50 (nM), UT-7-luciferase” value is 0.11 nM and the “Ratio (EC50 of Epo / EC50 of the scFv-Fc), UT-7-luciferase assay” value came out at 0.088. Moreover, the binding result in test [3] is “no binding (tested: 5 µg/ml)”. In test [4], this molecule came in with a Kd of 378 nM, an off-rate constant (koff) of 0.203 s⁻¹ and a kon of 536000 M⁻¹ s⁻¹. This molecule had a Kd in test [5] of 5810 nM.
